Assay results: the supplement of paper PMC9170038

Key:
MS2 coat protein = experiment: apparent KD of MS2 coat protein; higher = weaker reporter binding; conditions: Eterna round: R107
Experimental: (§1)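 RNA-MaP round R107: designed RNA switches with theophylline, tryptophan, arginine or FMN aptamers are transcribed on-chip within common flanks. They are titrated with SNAP-549-labelled MS2 coat protein in RNA-MaP buffer (100 mM Tris pH 7.5, 80 mM KCl, 4 mM MgCl2), without ligand or with the indicated ligand. Median apparent KD per design.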

[1] = tested on: K4 kissing-loop RNA reporter; experiment: apparent KD of K4 kissing-loop reporter; higher = weaker reporter binding; conditions: Eterna round: R107;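 also: bound reporter read as fluorescence of individual clusters on recovered sequencing chips by microscopy, with normalized cluster intensities fitted with a binding model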
Experimental: as §1, with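 “a labelled K4 kissing-loop RNA reporter” for “SNAP-549-labelled MS2 coat protein”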

[2] = input ligand: theophylline 20 uM
[3] = input ligand: theophylline 2 mM
[4] = input ligand: tryptophan 2.4 mM

Sequence	apparent KD of MS2 coat protein (MS2 coat protein; input ligand: arginine 13.2 mM) [nM]	apparent KD of MS2 coat protein (MS2 coat protein; input ligand: none) [nM]	apparent KD of MS2 coat protein (MS2 coat protein; [2]) [nM]	apparent KD of MS2 coat protein (MS2 coat protein; [3]) [nM]	apparent KD of MS2 coat protein (MS2 coat protein; [4]) [nM]	apparent KD of K4 kissing-loop reporter ([1]; input ligand: FMN 200 uM) [nM]	apparent KD of K4 kissing-loop reporter ([1]; input ligand: arginine 13.2 mM) [nM]	apparent KD of K4 kissing-loop reporter ([1]; input ligand: none) [nM]	apparent KD of K4 kissing-loop reporter [1, 2] [nM]	apparent KD of K4 kissing-loop reporter [1, 4] [nM]
CCCAGUCAUAACAAAGCAAAUAUACUCGAAGGAGCGUCAUAGUAGGCAGGUAGGUCGCGAGACAUGAGGAUCACCCAUGUAGAGA [zrzmullin]	20.1	31.8	33.2	39.2	35.1	–	–	–	–	–
GAUUACAUGAGGAUCACCCAUGUAACUGAAGGAGCGGUAAUAAAGCCAGGUAGGUCGCAGAACAACAUGUGGUUCAUCCAUGUAA [#14 Exclusion - Arginine A]	23.2	20.1	35	26.8	21.3	–	–	–	–	–
GGAUAGGACACGGCCGCCACUAGCUAGGAUACUAGCAACAUUUCCUCACUUGAGGAUCACCCAGGUAGGACCGGGUGUCCUAUCG	143	580	577	1430	620	–	–	–	–	–
UGUAUGUGAUUUGAUACCAGACCAGCUGGUGGUGCAUGAGGAACACCCAUGCAGGUUUGGGUCCCUUGGCAGCAAAUCGCAUACU [SS Theo B #24 Ms19]	149	–	150	33	130	–	–	–	–	–
GACCGAUUAUAGCGCGAUUGUCUUGUGGAAGGAGCGCAGAGGGCUGCAGGUAGGUCGCCACAUGAGGAUCACCCAUGUCAGGAUA [Ananvediri]	30.5	20.2	53.4	35.8	30.9	–	–	–	–	–
ACAUGAGGAUCACCCAUGUCAUGAGGUUCACGAGGACCGGUACGGCCGCCACUCGACAUGAGGGUCACCCAUGUGAGGAACACCC [mamullun]	117	–	278	579	–	–	–	–	–	–
UAACAUGAGGAUCACCCAUGUUUAGAAGAACGAGGACCGGUACGGCCGCCACUCGAAAAGUGGAAGAAAAGAGGGAUAGAAUGAU [Same State Trp A GF1]	14	–	16	12.2	–	–	–	–	–	–
AACAUGAGGAUCACCCAUGUCCUCGUGUACCGAGGACCGGUACGGCCGCCACUCGGUUCUCGCGAGGAUGGUCAAAGACUAUCCA [Omei Trp A SS B v4]	202	–	643	1010	–	–	–	–	–	–
AUAUGAUCAUAUGAUACCAGAAAUGGUAUUCCUUUCUUUCUUACAUGAGGAUCACCCAUGUUCCCUUGGCAGCAUAUGAUCAUAU [ETHB #1]	90.7	–	210	–	153	–	–	–	–	–
GCAUCCUAGUCGGCCGCCACUGCAUGUUGGCAGUGCUGCAACAUACAUGAGGAUCACCCAUGUUGCAGGACCGGGACUAGGAUGC [(Trp1)-(MT2)''-(T1)'-(MT2)'-(Ms2)-(Trp2)_Design1]	23.8	24.3	28.7	25.2	22.8	–	–	–	–	–
AGACAUGAGGAUCACCCAUGUAGCACGGAUACCAGAUCCAGAUUUAUCCCUUGGCAGCUGUGGUACAGCGUUGCAACGCUCCUAG [Exclusion - Theophylline A (Freestyle 16)]	17.6	–	23.2	–	17.1	–	–	–	–	–
AAGGUGAUCCGUGAUACCAGCUCAACAUGAGGAUCACCCAUGUAAGCCUGGAAACAGGCGAGCCCUUGGCAGCACGGUUGCCAAG [(M)'-(Theo1)-(Ms2)-(Theo2)-(M'')-(T2)'_Design1]	38.6	165	138	25.4	163	–	–	–	–	–
UGGUUUCGGUCAAUCACCGGUCCCUGGGAAGGAGCGGACUCAUGUCCAGGUAGGUCGCCCAGACAUGAGGAUCACCCAUGUGACA [Tiusdiin]	32.5	174	409	142	24.1	–	–	–	–	–
ACAUGAGGAUCACCCAUGUCACGGCACGAUACCAGCUGAUGCGGUGGCCCUUGGCAGCGUGACGUUUGGUCCCGCGGAUGACGGG [zzmullin]	36.6	–	74.3	–	53.2	–	–	–	–	–
GGUCUGAAAACCGAUCAAAGAUCGGAAGAUACCAGAGGGUGAUCCCUCCCUUGGCAGCUUCACAUGAGGAUCACCCAUGUAGACC [Omei inspired #BothOrNeither]	29.3	–	188	–	82.5	–	–	–	–	–
UAUAUAGAUGGACGUCAUCUAGAUGCAGAAGGAGCGUAGGAAACUACAGGUAGGUCGCUGAGGUACAUGAGGAUCACCCAUGUAG [SSArg A #21 Slice of Pi]	22.7	18.9	28.8	27	21.5	–	–	–	–	–
GCACAAGAUGGAAGGAGCGCUGGUAUAAGUCACAUGAGGAUCACCCAUGUGCUCCUUGCCGAGCAGGUAGGUCGCCAUCUUGUGC [SSAB NP+V+V2 #5]	22.3	42	71	66.9	68.1	–	–	–	–	–
UAAUGUGAGAGAAGGAGCGGAAGUCUCGUUACAACAUGAGGAUCACCCAUGUAACGUACAGUCCAGGUAGGUCGCUCUCGGGCGC [pqacmullin]	16.9	14.8	21.4	18.1	15.5	–	–	–	–	–
GAGGAUCAAGUAGAUACCAGCACAUGAGGAUCACCCAUGUAAUGGUGUCCCUCAAGAACGUGCCCUUGGCAGCUACUAUCAAAAU [Enarbeer]	24.6	–	20.5	–	14.7	–	–	–	–	–

Sequence	apparent KD of MS2 coat protein (MS2 coat protein; input ligand: arginine 13.2 mM) [nM]	apparent KD of MS2 coat protein (MS2 coat protein; input ligand: none) [nM]	apparent KD of MS2 coat protein (MS2 coat protein; [2]) [nM]	apparent KD of MS2 coat protein (MS2 coat protein; [3]) [nM]	apparent KD of MS2 coat protein (MS2 coat protein; [4]) [nM]	apparent KD of K4 kissing-loop reporter ([1]; input ligand: FMN 200 uM) [nM]	apparent KD of K4 kissing-loop reporter ([1]; input ligand: arginine 13.2 mM) [nM]	apparent KD of K4 kissing-loop reporter ([1]; input ligand: none) [nM]	apparent KD of K4 kissing-loop reporter [1, 2] [nM]	apparent KD of K4 kissing-loop reporter [1, 4] [nM]
GUACAUGAGGAUCACCCAUGUAUAGUUGAAGGAGCGACCGGAGGGUCAGGUAGGUCGCAGCACAUGGCGUCAACCCGUGUAUGCC [#1 Exclusion - Arginine A Attempt #25 (Inspired by Pi)]	15.2	17.3	22.7	18.5	18.6	–	–	–	–	–
GAUAUGGAAACAUGUCAGAUCCUUACCGGUCGAGGACCGGUACGGCCGCCACUCGCAAAUAUUGUACAUGAGGAUCACCCAUGUA [Ex Tryptophan A 17]	13.2	–	15.4	13.6	–	–	–	–	–	–
ACAUGAGGGAUGGAUACCAGCGACAUGAGGAUCACCCAUGUAUGAGGAUCAGCCAUGUUAUGCCCUUGGCAGCCACGAACAUGAG [ACFMULLIN]	26.2	35.6	103	235	37.2	–	–	–	–	–
GCCGCUGCCGCGGUGUGUGUGGGUGGGUGACGAGGACCGGUACGGCCGCCACUCGCGAUCGCACAUGAGGAUCACCCAUGUGUAA [Exclusion Tryp A GF20]	13.3	–	20.7	19.6	–	–	–	–	–	–
UGAUAUAGGGAGCCGUAUCAGAAACCUGAAGGAGCGCCGGAAAAGGCAGGUAGGUCGCGGGAACAUGAGGAUCACCCAUGUAUUC [dancer_small]	17.4	19	21.2	19.2	18.3	–	–	–	–	–
GCUGUAAGUGCAGAUACCAGCAGGUGAUAUUUCAUAUGACAUGAGGAUCACCCAUGUAACUGCCCUUGGCAGCUGCACUUACAGC [SSTHB #9]	172	–	193	–	523	–	–	–	–	–
AAUACCGGUCCUCGAAGCAUGGGUGAUCAACGAGGACCGGUACGGCCGCCACUCGAUAACAUGAGGAUCACCCAUGUAAUAAUAA [|T'-M'-Trp-Ms2|_Design5]	34.4	313	395	552	569	–	–	–	–	–
ACAUGGGUCUGAAGGAGCGCGAUAACAUGAGGAUCACCCAUGUAAAAUGGAACAUGAUAAUCGCAGGUAGGUCGCAGUAAAACCC [Same State Arginine B GF 11]	133	303	344	704	365	–	–	–	–	–
UCGUGUGUUUCGGAUACCAGUGAAAUCGAUACAUGAGGAUCACCCAUGUGAGAGGAUGUACACCCUUGGCAGCUGGCUGUAGCGG [yyzmullin]	32.1	–	56.9	–	44.3	–	–	–	–	–
AAAAGUAGGUCCAAUAAAACUACAUGUGAAGGAGCGCGCGAAAGCGCAGGUAGGUCGCACAUGAGGAUCACCCAUGUCCUACAAA [MAT - Exclusion Arginine A - Mod of Eli - D6]	39.8	47.3	77.2	65.7	39.8	–	–	–	–	–
ACCGCAUCCGUAUAGGAUGCGGCCCAUGAAGGAGCGUGGGAAACCACAGGUAGGUCGCAUGGACAUGAGGAUCACCCAUGUUAUU [Inception]	43.7	59.8	79.3	62.7	48.3	–	–	–	–	–
UUAAUCAGGUUAGAAAACUAAUUUGCAGAAGGAGCGUGAUAAAACACAGGUAGGUCGCUGAAGGGAACAUGAGGAUCACCCAUGU [AstrosSSArgA#10]	22.9	26.3	32.7	28.5	26	–	–	–	–	–
UUAUGCAGGUCGGCCGCCACUACACACAUGAGGAUCACCCAUGUAGUUACUGGGUGAAGUGGCAGUAGGACCGGGACCCGCACAC [Brourdmod22]	226	485	561	715	258	–	–	–	–	–
GAUAGUUGAAGGGAUACCAGCCUGGACAUGAGGAUCACCCAUGUAGCGUGUUUGAAACUGGGCCCUUGGCAGCCCAUAUUGUGUA [Same State - Theophylline B / A]	16.3	–	17.6	–	15.2	–	–	–	–	–
AAUGCAUAGUGAAGGAGCGCGUAUAGCAGUGAUGUUGCUUACUUAUUAUUAUAUUAAUUGACGCAGGUAGGUCGCACUUUGCAUA [JR_ExcArginiB_Sub022]	–	–	–	–	–	196	144	196	181	156
UCCUGCAAUCUGCCACGAAAGUGGAUUGAUACCAGAGUCGAAAGACUCCCUUGGCAGCGAGUGAUGUUCGACGCAGGUAAAUAAA [MatMod 5 - Jieux - Exclusion - Theophylline A]	–	–	–	–	–	142	224	178	234	135
UAGGAGUGAUGUUCCUUUAGCAGGUAGGAAGGAGCGCCCAUUUGGGCAGGUAGGUCGCCUACUGGCCCUGAGUUAAACCUUAGGC [#11 K4 Arginine A Same State]	–	–	–	–	–	149	181	150	207	127
UGGAGUUGACGAAAAGUCAACUCCUGAGAUACCAGUGACGAAAGUCACCCUUGGCAGCUCACUGCCAGUGAUGUUGGAAAUAAAA [#01 K4 Theophylline A Same State]	–	–	–	–	–	346	182	224	337	217
